Assay results reported in patent US6583276 (TECHNION RESEARCH AND DEVELOPMENT, dated 2003).

B1: VEGF145 (recombinant human vascular endothelial growth factor form of 145 amino acids, exons 1-5, 6a and 8) (ligand)
chain: APMAEGGGQNHHEVVKFMDVYQRSYCHPIETLVDIFQEYPDEIEYIFKPSCVPLMRCGGCCNDEGLECVPTEESNITMQIMRIKPHQGQHIGEMSFLQHNKCECRPKKDRARQEKKSVRGKGKGQKRKRKKSRYKSWSVCDKPRR
notes: Produced in Sf9 insect cells with a recombinant baculovirus and partially purified on heparin-sepharose; also called r-VEGF
B2: VEGF121 (ligand, human, UniProt P15692-9 27-147, looked up)
chain: APMAEGGGQNHHEVVKFMDVYQRSYCHPIETLVDIFQEYPDEIEYIFKPSCVPLMRCGGCCNDEGLECVPTEESNITMQIMRIKPHQGQHIGEMSFLQHNKCECRPKKDRARQEKCDKPRR
notes: mature; VEGF121 isoform of VEGF-A

Target: T1, KDR/flk-1 VEGF receptor of HUVEC cells (human, UniProt P35968 20-1356)
T1 construct: whole, on cells; Endogenous receptor on confluent HUVEC cells
Test: overview table, row 'Binding to Flk-1 and Flt-1 receptors'

T1 sequence (P35968 20-1356): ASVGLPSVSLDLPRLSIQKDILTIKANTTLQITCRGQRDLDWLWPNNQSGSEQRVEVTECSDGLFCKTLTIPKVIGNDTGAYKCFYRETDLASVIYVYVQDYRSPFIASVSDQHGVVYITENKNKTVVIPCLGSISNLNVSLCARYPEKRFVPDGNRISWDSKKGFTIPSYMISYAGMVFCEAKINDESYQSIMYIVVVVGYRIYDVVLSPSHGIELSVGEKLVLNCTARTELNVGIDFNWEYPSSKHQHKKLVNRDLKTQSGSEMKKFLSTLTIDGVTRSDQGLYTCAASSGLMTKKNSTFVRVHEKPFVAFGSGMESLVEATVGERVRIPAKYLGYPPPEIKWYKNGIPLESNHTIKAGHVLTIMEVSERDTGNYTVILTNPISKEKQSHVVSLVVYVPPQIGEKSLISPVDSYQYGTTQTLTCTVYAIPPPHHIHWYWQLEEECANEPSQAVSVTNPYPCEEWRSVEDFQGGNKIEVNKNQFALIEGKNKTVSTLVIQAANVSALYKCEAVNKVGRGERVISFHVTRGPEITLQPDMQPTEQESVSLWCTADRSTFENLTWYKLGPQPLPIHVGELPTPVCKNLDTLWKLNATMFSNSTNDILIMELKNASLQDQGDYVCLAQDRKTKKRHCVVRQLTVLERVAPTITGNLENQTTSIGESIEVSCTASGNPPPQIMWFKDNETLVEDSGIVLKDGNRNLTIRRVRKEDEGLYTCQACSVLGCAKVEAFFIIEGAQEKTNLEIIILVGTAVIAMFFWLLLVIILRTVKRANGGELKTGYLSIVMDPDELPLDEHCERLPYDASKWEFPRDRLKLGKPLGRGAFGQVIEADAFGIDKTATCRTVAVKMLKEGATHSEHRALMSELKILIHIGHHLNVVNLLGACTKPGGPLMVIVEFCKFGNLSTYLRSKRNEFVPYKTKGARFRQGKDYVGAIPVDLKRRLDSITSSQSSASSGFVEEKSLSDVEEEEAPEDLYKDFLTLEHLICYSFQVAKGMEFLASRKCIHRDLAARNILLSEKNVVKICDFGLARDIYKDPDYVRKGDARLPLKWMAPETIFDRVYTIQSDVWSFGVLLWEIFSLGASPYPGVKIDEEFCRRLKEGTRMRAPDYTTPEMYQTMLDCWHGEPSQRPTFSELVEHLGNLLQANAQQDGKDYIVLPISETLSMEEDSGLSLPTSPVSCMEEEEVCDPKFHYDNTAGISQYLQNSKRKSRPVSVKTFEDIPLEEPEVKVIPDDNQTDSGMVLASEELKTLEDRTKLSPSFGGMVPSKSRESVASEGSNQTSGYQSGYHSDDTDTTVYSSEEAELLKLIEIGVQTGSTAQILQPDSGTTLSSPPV

| Binder | binding result |
| --- | --- |
| B1 | binds |
| B2 | binds |
